Source: patent publication US20240190939A1
Blank lines part the entries; values can stand above or below the substance they belong to.

Experiments:
CD47-His = assay: ELISA: hCD47 His capture, IgG HRP detection
CD155PVR-His [1] = assay: ELISA: 'CD115/PVR Capture' as printed (legend: CD155PVR-His), Fc-HRP detection
recombinant CD155 = assay: ELISA: CD155/PVR capture, Fc-HRP detection
CD155PVR-His [2] = assay: ELISA: CD155-His capture, IgG detection
[3] = target: mouse LTbR on CHO-K1 cells (mouse) (UniProt P50284); assay: flow cytometry on CHO-K1 cells expressing murine LTbR (the sentence names the second value 'for mCD172a(SIRPα)')
[4] = target: mouse LTbR on CHO-K1 cells (mouse) (UniProt P50284); assay: flow cytometry on CHO-K1 cells expressing murine LTbR

Sequence of mouse LTbR on CHO-K1 cells (mouse) (P50284 31-415): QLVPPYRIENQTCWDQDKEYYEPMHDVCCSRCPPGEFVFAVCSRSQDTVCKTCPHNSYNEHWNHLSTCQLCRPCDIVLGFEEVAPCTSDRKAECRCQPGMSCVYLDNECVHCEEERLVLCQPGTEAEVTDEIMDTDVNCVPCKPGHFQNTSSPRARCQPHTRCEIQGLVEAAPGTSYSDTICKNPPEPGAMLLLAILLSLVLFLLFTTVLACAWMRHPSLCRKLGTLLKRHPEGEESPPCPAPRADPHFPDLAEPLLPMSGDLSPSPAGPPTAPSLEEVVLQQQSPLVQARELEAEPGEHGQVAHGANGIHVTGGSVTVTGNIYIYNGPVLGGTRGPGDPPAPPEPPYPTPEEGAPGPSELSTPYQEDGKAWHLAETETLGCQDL
Sequence of CD47-His (Q61735 19-140): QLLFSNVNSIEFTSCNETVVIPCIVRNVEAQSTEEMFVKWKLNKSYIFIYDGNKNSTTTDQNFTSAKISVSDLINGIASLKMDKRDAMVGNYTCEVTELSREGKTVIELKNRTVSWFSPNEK

EC50 (read off the curve) (CD47-His): 0.3 nM
Substance: SIRPa-Fc Std (Fc fusion)

EC50 (read off the curve) (CD155PVR-His [1]): 10 nM
EC50 (read off the curve) (recombinant CD155): 10 nM
Substance: TIGIT Std (receptor)

EC50 (read off the curve) (CD155PVR-His [2]): 0.07 nM
Substance: TIGIT-Fc Std (Fc fusion)

EC50 [3]: 24 nM
Substance: murine CD172a(SIRPα)-Fc-LIGHT chimeric protein (from UniProt P97797 32-373) (Fc fusion)

EC50 [4]: 11 nM
Substance: murine TIGIT-Fc-LIGHT chimeric protein (from UniProt P86176 29-148) (Fc fusion)
